In the supplement of paper PMC10065799, “High-throughput profiling of sequence recognition by tyrosine kinases and SH2 domains using bacterial peptide display” (eLife, 2023):

Legend:
Jak2 = Jak2 (UniProt O60674); assay: phosphorylation enrichment, bacterial display (enrichment ratio); higher = better substrate or ligand; peptides without Tyr show the background
EPHB1 = EPHB1 (UniProt P54762); assay: as above
Fes = Fes (UniProt P07332); assay: as above
FGFR3 = FGFR3 (UniProt P22607); assay: as above
Chain of FGFR3 (P22607 whole entry, looked up): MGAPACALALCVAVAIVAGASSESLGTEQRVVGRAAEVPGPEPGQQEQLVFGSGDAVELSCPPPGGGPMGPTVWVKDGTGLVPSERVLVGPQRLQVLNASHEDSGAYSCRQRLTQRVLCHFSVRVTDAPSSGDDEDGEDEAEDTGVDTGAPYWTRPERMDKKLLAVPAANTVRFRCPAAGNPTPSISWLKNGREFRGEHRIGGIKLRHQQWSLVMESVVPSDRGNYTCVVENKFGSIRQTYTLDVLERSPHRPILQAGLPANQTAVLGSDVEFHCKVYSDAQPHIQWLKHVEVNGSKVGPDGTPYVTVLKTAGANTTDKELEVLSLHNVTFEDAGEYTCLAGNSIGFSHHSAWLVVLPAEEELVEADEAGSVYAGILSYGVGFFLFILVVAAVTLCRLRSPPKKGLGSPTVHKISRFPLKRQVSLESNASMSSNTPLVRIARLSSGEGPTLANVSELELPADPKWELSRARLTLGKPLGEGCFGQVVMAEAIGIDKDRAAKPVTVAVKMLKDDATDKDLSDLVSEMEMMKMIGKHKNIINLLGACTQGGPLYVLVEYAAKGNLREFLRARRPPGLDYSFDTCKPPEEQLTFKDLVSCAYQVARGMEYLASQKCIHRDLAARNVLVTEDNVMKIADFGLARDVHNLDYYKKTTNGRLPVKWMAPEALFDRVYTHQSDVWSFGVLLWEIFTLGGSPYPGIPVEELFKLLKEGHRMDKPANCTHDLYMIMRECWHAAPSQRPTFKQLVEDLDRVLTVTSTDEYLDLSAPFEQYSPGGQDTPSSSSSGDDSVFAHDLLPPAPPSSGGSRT

EPHB2 = EPHB2 (UniProt P29323); assay: as above
Chain of EPHB2 (P29323 whole entry, looked up): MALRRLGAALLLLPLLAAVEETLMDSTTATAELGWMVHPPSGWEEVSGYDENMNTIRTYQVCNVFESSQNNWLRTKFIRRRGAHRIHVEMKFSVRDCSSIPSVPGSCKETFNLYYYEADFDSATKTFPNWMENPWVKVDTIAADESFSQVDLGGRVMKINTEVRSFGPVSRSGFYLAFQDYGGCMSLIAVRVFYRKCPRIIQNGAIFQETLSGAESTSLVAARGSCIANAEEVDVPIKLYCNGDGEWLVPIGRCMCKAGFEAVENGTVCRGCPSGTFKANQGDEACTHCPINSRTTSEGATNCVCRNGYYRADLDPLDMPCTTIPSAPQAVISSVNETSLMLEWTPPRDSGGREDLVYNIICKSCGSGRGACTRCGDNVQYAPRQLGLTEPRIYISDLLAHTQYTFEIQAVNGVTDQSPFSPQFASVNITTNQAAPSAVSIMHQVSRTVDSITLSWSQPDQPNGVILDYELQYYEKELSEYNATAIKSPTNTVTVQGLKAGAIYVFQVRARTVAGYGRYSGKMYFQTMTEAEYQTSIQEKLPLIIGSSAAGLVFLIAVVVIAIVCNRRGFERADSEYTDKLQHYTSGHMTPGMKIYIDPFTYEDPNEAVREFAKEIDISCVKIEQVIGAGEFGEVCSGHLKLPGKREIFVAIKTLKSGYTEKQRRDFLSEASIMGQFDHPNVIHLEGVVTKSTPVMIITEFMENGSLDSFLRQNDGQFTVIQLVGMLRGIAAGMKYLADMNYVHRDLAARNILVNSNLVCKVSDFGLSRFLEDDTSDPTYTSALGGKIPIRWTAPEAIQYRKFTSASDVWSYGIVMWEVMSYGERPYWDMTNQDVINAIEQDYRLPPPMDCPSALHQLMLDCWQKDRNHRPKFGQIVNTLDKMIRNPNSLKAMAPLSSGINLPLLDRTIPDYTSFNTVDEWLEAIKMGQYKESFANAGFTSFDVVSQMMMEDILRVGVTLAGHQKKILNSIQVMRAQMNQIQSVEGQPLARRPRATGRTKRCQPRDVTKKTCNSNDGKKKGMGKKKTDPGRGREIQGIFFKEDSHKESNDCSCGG

c-Abl (mouse) = assay: as above
FGFR1 = FGFR1 (UniProt P11362); assay: as above
Fyn = Fyn (UniProt P06241); assay: as above
Chain of Fyn (P06241 whole entry, looked up): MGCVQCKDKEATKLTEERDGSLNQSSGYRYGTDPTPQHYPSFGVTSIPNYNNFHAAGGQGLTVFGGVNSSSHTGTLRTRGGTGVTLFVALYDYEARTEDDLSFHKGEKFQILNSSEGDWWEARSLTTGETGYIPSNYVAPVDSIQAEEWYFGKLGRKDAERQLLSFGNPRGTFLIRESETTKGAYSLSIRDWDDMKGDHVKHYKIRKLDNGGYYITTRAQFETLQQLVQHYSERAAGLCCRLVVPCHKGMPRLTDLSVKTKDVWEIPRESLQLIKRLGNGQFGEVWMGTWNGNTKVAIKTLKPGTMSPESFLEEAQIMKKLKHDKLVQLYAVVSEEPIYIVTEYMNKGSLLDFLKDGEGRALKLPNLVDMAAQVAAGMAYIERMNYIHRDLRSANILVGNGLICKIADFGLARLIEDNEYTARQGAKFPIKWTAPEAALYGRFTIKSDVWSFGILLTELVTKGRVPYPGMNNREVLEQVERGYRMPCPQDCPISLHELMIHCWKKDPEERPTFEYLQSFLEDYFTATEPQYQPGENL

Fer (mouse) = assay: as above
c-Src = assay: as above
Hck = Hck (UniProt P08631); assay: as above
Chain of Hck (P08631 whole entry, looked up): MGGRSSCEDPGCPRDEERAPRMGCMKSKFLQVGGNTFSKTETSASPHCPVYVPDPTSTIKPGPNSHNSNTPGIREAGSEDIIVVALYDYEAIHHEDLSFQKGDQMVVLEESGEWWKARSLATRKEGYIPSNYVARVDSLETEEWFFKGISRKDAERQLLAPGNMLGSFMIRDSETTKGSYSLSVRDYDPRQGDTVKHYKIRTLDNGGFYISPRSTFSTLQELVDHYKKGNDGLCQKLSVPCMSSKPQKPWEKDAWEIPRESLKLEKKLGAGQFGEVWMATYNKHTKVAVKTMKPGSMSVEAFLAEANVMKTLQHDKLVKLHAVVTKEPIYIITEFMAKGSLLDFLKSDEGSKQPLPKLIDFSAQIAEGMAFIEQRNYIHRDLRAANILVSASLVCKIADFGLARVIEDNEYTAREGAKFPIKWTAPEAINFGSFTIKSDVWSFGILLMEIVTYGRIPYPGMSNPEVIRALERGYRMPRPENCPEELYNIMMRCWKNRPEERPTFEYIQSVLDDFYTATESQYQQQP

MERTK = MERTK (UniProt Q12866); assay: as above
AncSZ = assay: as above
c-Src SH2 = assay: SH2 binding enrichment of the phosphorylated peptide, bacterial display (enrichment ratio); higher = better substrate or ligand; peptides without Tyr show the background
Grb2 SH2 = Grb2 SH2 (UniProt P62993); assay: as above
SHP2-C SH2 = assay: as above
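Wherever SH2 binding enrichment of the phosphorylated peptide, bacterial display is given: peptide library displayed on the E. coli surface as eCPX fusions, selected cells deep-sequenced, score is each peptide's frequency after selection divided by its frequency in the input.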
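Wherever phosphorylation enrichment, bacterial display is given: 11-residue human phosphosite peptides and single-mutation variants displayed on the E. coli surface, counted by deep sequencing, each peptide's frequency after selection divided by its frequency in the unselected input library; frequency after pTyr selection over input frequency; kinase dosed for 20-30% of maximal phosphorylation in three min.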

Chain of Jak2 (O60674 whole entry, looked up): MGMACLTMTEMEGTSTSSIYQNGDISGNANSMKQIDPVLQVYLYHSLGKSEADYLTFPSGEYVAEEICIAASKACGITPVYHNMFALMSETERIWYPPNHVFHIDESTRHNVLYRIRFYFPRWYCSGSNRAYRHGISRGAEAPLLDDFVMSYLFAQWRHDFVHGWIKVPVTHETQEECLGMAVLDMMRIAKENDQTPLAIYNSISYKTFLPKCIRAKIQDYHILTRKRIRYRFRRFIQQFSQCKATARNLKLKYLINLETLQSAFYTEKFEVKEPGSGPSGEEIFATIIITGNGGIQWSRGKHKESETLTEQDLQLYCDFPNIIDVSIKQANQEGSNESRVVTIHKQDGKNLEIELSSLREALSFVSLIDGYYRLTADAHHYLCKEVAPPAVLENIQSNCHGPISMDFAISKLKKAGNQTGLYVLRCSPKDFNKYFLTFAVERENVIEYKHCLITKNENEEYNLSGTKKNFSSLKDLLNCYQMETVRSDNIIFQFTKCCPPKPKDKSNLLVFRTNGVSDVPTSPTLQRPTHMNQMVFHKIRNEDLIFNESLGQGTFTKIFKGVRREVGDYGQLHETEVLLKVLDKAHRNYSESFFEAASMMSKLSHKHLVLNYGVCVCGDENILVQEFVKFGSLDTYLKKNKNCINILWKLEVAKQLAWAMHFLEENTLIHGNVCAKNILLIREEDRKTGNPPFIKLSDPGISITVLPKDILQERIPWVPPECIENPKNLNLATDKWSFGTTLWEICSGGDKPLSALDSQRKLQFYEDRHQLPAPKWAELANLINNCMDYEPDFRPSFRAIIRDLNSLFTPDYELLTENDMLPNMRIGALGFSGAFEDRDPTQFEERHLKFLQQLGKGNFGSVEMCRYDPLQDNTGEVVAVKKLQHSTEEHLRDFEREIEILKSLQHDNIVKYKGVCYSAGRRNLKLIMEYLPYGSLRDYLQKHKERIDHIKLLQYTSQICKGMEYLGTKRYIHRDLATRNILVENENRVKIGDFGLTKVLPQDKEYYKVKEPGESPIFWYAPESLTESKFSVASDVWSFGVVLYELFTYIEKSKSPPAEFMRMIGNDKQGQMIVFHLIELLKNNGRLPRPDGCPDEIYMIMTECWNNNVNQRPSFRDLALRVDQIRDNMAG
Chain of EPHB1 (P54762 whole entry, looked up): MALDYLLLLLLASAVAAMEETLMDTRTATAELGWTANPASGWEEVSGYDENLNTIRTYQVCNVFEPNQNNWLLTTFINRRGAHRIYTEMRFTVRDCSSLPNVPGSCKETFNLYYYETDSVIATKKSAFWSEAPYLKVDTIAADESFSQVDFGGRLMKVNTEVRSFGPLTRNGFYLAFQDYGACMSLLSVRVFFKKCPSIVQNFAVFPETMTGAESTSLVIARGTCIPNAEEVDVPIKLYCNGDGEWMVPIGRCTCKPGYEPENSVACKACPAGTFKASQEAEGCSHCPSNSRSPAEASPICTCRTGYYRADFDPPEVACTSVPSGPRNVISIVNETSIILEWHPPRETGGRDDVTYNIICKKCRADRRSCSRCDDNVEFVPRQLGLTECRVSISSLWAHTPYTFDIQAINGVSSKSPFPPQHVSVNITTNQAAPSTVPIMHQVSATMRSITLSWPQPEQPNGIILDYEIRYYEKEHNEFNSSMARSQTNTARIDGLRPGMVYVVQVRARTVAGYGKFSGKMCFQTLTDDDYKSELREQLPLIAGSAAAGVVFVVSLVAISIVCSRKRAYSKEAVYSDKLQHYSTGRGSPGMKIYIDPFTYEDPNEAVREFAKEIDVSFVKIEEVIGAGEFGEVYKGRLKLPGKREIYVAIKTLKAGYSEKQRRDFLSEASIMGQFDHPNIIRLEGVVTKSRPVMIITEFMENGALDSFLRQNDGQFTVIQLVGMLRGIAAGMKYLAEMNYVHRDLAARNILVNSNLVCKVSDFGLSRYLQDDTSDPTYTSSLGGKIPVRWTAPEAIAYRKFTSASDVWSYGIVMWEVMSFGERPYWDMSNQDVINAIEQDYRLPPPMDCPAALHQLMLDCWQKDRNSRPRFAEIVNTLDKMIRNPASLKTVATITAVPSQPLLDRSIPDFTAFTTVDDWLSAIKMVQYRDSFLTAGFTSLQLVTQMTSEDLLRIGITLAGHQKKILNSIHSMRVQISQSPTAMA

Sequence	SH2 binding enrichment (c-Src SH2)	SH2 binding enrichment (Grb2 SH2)	SH2 binding enrichment (SHP2-C SH2)	phosphorylation enrichment (Jak2)	phosphorylation enrichment (EPHB1)	phosphorylation enrichment (Fes)	phosphorylation enrichment (FGFR3)	phosphorylation enrichment (EPHB2)	phosphorylation enrichment (c-Abl (mouse))	phosphorylation enrichment (FGFR1)	phosphorylation enrichment (Fyn)	phosphorylation enrichment (Fer (mouse))	phosphorylation enrichment (c-Src)	phosphorylation enrichment (Hck)	phosphorylation enrichment (MERTK)	phosphorylation enrichment (AncSZ)
GVTLLYYGRDN [ADGRD1_Y85_Y89D]	0.807	1.13	1.04	1.39	0.605	1.01	0.685	0.629	0.894	0.543	0.545	0.408	0.816	1.01	0.841	0.923
GDEEDYYEIPG [EGFR_opt_no-pY_2015]	1.84	0.87	0.67	1.34	0.919	1.64	5.79	1.26	0.968	6.05	1.19	2.82	1.32	0.963	0.811	3.2
LLIVEYAKFGS [RET_Y806_YF]	1.05	1.14	1.29	1.6	5.93	1.83	1.36	1.72	1.67	0.909	1.4	1.16	1.13	1.25	0.585	1.79
IPQEEYKATGL	0.564	0.763	0.777	0.93	0.706	1.18	0.677	0.635	0.776	0.527	0.497	0.531	0.535	0.631	0.492	0.84
GPKFVYDEIDN [ACOX1_Y232_G231V]	24.5	0.709	0.653	0.92	0.505	1.04	0.57	0.556	0.652	0.482	0.537	0.409	0.514	0.467	0.413	1.1
FKDFFYCWNTS [AICDA_Y146_F151S_YF]	0.59	0.815	0.689	1.42	0.942	1.5	0.939	0.61	1.08	0.496	0.458	0.768	0.589	0.589	0.836	1.32
TLQSMYGCDMG [HLA-B_Y123_V127M]	0.757	0.916	0.485	1.2	0.709	1.43	0.955	0.823	1.15	0.8	0.597	0.599	0.689	0.609	0.63	0.939
GRSTYYWPSPR [GAGE12J_Y10_R13S]	0.898	1.12	0.923	7.45	10.5	0.796	5.22	11.1	6.32	7.32	6.75	1.44	7.28	7.41	17	1.78
RLLVDYPWTQR [HBB_Y36_V35D]	0.554	0.883	0.884	0.516	0.591	0.759	0.75	0.542	0.465	0.544	0.616	0.45	0.351	0.476	0.411	0.978
SSGSRYQPLAS [NCAPD2_Y1325_T1321S]	0.583	0.977	0.843	0.531	0.366	0.558	0.433	0.431	0.488	0.468	0.384	0.392	0.453	0.442	0.43	0.529
VVQGLYKSMRK [KBTBD2_Y250_P254R]	0.462	0.68	0.652	0.522	0.397	0.464	0.358	0.432	0.519	0.403	0.421	0.372	0.391	0.351	0.482	0.628
TLNFFYQQVKS [PTK2_Y148]	0.885	0.802	0.768	1	0.68	1.15	0.849	0.658	0.606	0.471	0.516	0.575	0.361	0.471	0.366	1.15
NPSYNYEIVNR [DYNC1H1_Y3379]	0.82	0.675	0.602	0.656	13	0.776	0.572	6.48	0.562	0.552	0.479	1.26	0.519	0.737	0.725	0.898
LSVEIYDRREY [ITGB7_Y753]	0.523	0.602	0.437	0.965	0.669	1.4	0.869	0.816	0.801	0.618	0.675	0.587	0.765	2.23	0.581	1.52
DLWEKYMDCGG [HAP1_Y440_R437W]	0.55	0.768	0.617	1.12	0.976	1.42	0.854	0.775	0.738	0.6	0.509	0.578	0.436	0.596	0.458	1.44
ERNTVYSSSGV [NELL2_Y350]	0.485	0.952	0.741	0.405	0.502	0.474	0.679	0.379	0.521	0.372	0.544	0.359	0.666	0.768	0.39	0.539
HQPGEYLFHAE [FLT3_Y416_I417L]	0.514	0.742	1.19	1.29	0.527	1.13	0.691	0.724	1.21	0.628	0.481	0.554	0.879	0.756	0.617	1.09
FARNCYVAGQY [G6PD_Y107_S106C]	0.469	0.709	0.707	0.889	0.55	1.07	0.641	0.526	0.83	0.443	0.437	0.511	0.469	0.524	0.49	1.08
LGQRIYQFIQS [DYRK1B_Y271_YF]	2.23	1.02	1.33	0.725	11.7	1.26	1.5	5.42	1.3	2.23	2.42	10.1	4.15	4.98	8.85	0.916
TKHTFYKQPMF [GBA_Y451_D448H]	0.941	1.04	1.13	0.49	0.429	0.769	0.482	0.558	0.522	0.539	0.478	0.44	0.377	0.475	0.441	1
TFSPPYFHRNC [HGD_Y333_R330S_YF]	2.42	8.96	1.18	2.21	0.268	0.808	0.83	1.08	0.878	0.535	0.363	0.483	1.01	0.539	0.718	1.81
HFGCVYLGTLL [MET_Y1093_H1094L]	0.483	0.692	0.553	2.07	1.02	2.24	1.67	1.1	1.39	0.925	0.897	0.923	4.61	1.01	0.597	2.29

The next lines start with results.

SH2 binding enrichment (c-Src SH2)	SH2 binding enrichment (Grb2 SH2)	SH2 binding enrichment (SHP2-C SH2)	Sequence	phosphorylation enrichment (Jak2)	phosphorylation enrichment (EPHB1)	phosphorylation enrichment (Fes)	phosphorylation enrichment (FGFR3)	phosphorylation enrichment (EPHB2)	phosphorylation enrichment (c-Abl (mouse))	phosphorylation enrichment (FGFR1)	phosphorylation enrichment (Fyn)	phosphorylation enrichment (Fer (mouse))	phosphorylation enrichment (c-Src)	phosphorylation enrichment (Hck)	phosphorylation enrichment (MERTK)	phosphorylation enrichment (AncSZ)
3.79	0.569	0.482	TVEDHYYEGGI [TKT_Y563]	1.06	0.789	1.23	1.9	0.583	0.745	1.72	0.589	0.636	0.588	0.565	0.574	1.27
0.569	0.831	0.675	KPLMPSMRFSR [SMARCE1_Y73_Y73S_YF]	0.685	0.392	0.876	0.463	0.399	0.737	0.396	0.424	0.35	0.543	0.413	0.459	0.828
0.468	0.676	0.453	FAANFYKLLGN [ROR2_Y646_D644N_YF]	0.924	0.476	0.986	0.512	0.462	0.726	0.425	0.365	0.347	0.46	0.464	0.419	0.898
1.82	1.97	2.41	LLRLAYLADVF [ZBED5_Y476_I480V]	0.924	0.74	1.19	0.725	0.583	0.704	0.577	0.484	0.633	0.47	0.628	0.537	1.18
0.947	1.1	0.845	NLDCFYQQVTK [SEC16A_Y1041_R1039C]	1.15	1.1	1.31	0.786	1.08	0.831	0.934	0.675	2.22	1.31	1.91	0.856	1.54
1.23	1.48	1.48	WFPFTYVEEDE [VAV3_Y842_S840Y_YF]	1.1	0.702	1.11	0.692	0.473	0.655	0.52	0.516	0.547	0.521	0.437	0.453	1.19
0.554	0.596	0.657	AGQEDYDRLRS [RHOA_Y66_P71S]	1.05	0.582	1.38	0.639	0.513	0.741	0.475	0.555	0.795	0.609	0.638	0.466	0.96
0.494	0.862	0.607	VKPENYRRQDI [VHL_Y175_L178Q]	0.469	0.274	0.504	0.4	0.367	0.465	0.343	0.344	0.304	0.365	0.309	0.379	0.475
0.794	0.823	0.716	QTSSNYDDAMQ [ZNF281_Y531_I527T]	0.884	0.825	1.02	0.975	1.14	0.476	0.86	0.756	0.741	0.44	0.57	0.58	1.06
0.629	0.968	0.645	KRAAIYNPVIY [RHO_Y301_S297R]	0.424	0.398	0.556	0.443	0.415	0.469	0.577	2.33	5.24	2.67	4.27	1.06	0.547
1.03	1.52	1.43	FMMMRYSQNVR [SDAD1_Y656]	0.939	0.614	1.04	0.782	0.626	0.701	0.432	0.424	0.58	0.365	0.475	0.493	1.11
